# Laboratory results taken from the RNAGym collection of RNA variant scans (doi:10.7554/elife.90254).
# B1: LINE1-full (parent)
# chain: UACGUAGGUGGUUUUCCCCUGAUAGUGCUAAGGGGGCCUGGAAGUUUGGACUGGGCAGAGCUCAACACAGCGUGGCAAAGUGGCUGUGGCUAGACUGCCUCUCUGGAUUCCUCGUCACUCAGCAGGGCAUCUCUGAGAGAAAUGCC
# Variants of: B1
# Experiment: self-cleavage, relative activity (ratio to wild type); higher = more cleavage; in vitro, sequencing; the parent is a self-cleaving ribozyme
row,Variant,self-cleavage
1,UACGUAGGUGGUUUUCCCCUGAUAGUGCUAAGGGGGCCUGGAAGUUUGGACUAGGCAGAGCUCAACACAGCGAGGCAAAGUGGCUGUGGCUAGACUGCCUCUCUGGAUUCCUCGUCACUCAGCAGGGCAUCUCUGAGAGAAAUGCC [G53A U73A],1.88
2,UACGUAGGUGGUUUUCCCCUGAUAGUGCUAAGGGGGCCUGGAAGUUUGGACUGGGCAGAGCUCAACACAGCGUGGCAAGGUGGCUGUGGCUAGACUGCCUCUCUGGAUUCCUCGUCACUCAGCAGGGCAUCUCUGAGAGAAAUCCC [A79G G144C],0.77
3,UACGUAGGUGGUUUUCCCCUGAUAGUGCUAAGGGGGCCUGGAAGUUUGGACUGGGCUGAGCUCAACACAGCGUGGCAAAGUGGCUGUGGCUAGACUGCCUCUCUGGAUUCCUCGUCACUCAGCAGGGCAUCUCUGAGAGAAAUGUC [A57U C145U],0.08
4,UACGUAGGUGGUUUACCCCUGAUAGUGCUAAGGGGGCCUGGAAGUUUGGACUGGGCAGAGCUCUACACAGCGUGGCAAAGUGGCUGUGGCUAGACUGCCUCUCUGGAUUCCUCGUCACUCAGCAGGGCAUCUCUGAGAGAAAUGCC [U15A A64U],0.29
5,UACGUAGGUGGUUUUCCCCUGAUAGUGCUAAGGGGGCCUGGUAGUUUGGACUGGGCAGAGCUCAACACAGCGUGGCAAAGUGGCUGUGGCUAGACUGCCUCUCUGGAUUCCUCGGCACUCAGCAGGGCAUCUCUGAGAGAAAUGCC [A42U U115G],1.04
6,UACGUAGGUGGUUUUCCCCUGAUAGUGUUAAGGGGGCCUGGAAGUUUGGACUGGGCAGAGCUCAACACAGCGUGGCCAAGUGGCUGUGGCUAGACUGCCUCUCUGGAUUCCUCGUCACUCAGCAGGGCAUCUCUGAGAGAAAUGCC [C28U A77C],1.07
7,UAUGUAGGUGGUUUUCCCCUGAUAGUGCUAAGGGGGCCUGGAAGUUUGGACUGGGCAGAGCUCAACACAGCGUGGCAAAGUGGCUGUGGCUAGACUGCCUCUCUGGAUUCCUCGUCACUCAGCAGGGCAUCUCUGAGAGAAAAGCC [C3U U143A],0.41
8,UACGUAGGUGGUUUUCCCCUGAUAGUGCUAAGGGGGCCUGGAAGUUUGGACUGGGCAGAGCUCAACACAGCGUGGCAAAGUGGCUGUGGCUAGACUGCCUCUCUGGACUCCUCGUCACUCAGCAGGGCAUCUCUGAGUGAAAUGCC [U108C A138U],1.68
9,UACGUAGGUGGUUUUCCCCUGAUAGUGCUAAGGGGGCCUGGAAGUUUGGACUGAGCAGAGCUCAACACAGCGCGGCAAAGUGGCUGUGGCUAGACUGCCUCUCUGGAUUCCUCGUCACUCAGCAGGGCAUCUCUGAGAGAAAUGCC [G54A U73C],0.67
10,UACGUAGGUGGUUUUCCCCUGAUAGUGCUAAGCGGGCCUGGAAGUUUGGACUGGGCAGAGCUCAACACAGCGUGGCAAAGUGGCUGUGGCUAGACUGCCUCUCUGGAUUCCUCGUCACUCGGCAGGGCAUCUCUGAGAGAAAUGCC [G33C A121G],0.21
11,UACGUAGGUGGUUUUCCCCUGAUAGUGCUAAGGGGGCCUGGAAGUUUGGACUGGGCAGAGCUCAACACGGCGUGGCAAAGUGGCUGUGGCUAGUCUGCCUCUCUGGAUUCCUCGUCACUCAGCAGGGCAUCUCUGAGAGAAAUGCC [A69G A94U],0.13
12,UACGUAGGUGGUUUUCCCCUGAUAGUGCUAAGGGGGCCUGGAAGUUUGGACUGGGCAGAGCUCAACACAGCGGGGCAAAGUGGCUGUGGCUAGACUGCCUCUCUGGAUUCCUCGUCACUCAGCAGGGCACCUCUGAGAGAAAUGCC [U73G U130C],2.25
13,UACGUAGGUGGUUUACCCCUGAUAGUGCUAAGGGGGCCUGGAAGUUUGGACUGGGCAGAGCUCAACACAGCGUGGCAAAGUGGCUGUGGCUAGACUGCCACUCUGGAUUCCUCGUCACUCAGCAGGGCAUCUCUGAGAGAAAUGCC [U15A U100A],0.59
14,UACGUAGGUGGUUUACCCCUGAUAGUGCUAAGGGGGCCUGGAAGUUUGGACUGGGCAGAGCUCAACACAGCGUGGCAAAGUGGCUGUGGCUAGACUGCCUCUCUGGAUUCCUCGUCACUCAGCAGGUCAUCUCUGAGAGAAAUGCC [U15A G127U],1.87
15,UACGUAGGUGGUUUUCCCCUGAUAGUGCUAAGGGGGCCUGGAAGUUUGGAUUGGGCAGAGCUCAACACAGCGUGGCAAAGUGGCUGUGGCUAGACUGCCUCUCUGGAUUCCUCGUCACUCAGCAGGGCAUCUCUGAGAGAAAUGCC [C51U],1.3
16,UACGUAGGUGGUUUUCCCCUGAUAGUGCUAAGGGGGCCUGGAAGUUUGGACUGGGCAGCGCUCAACACAGCGUGGCUAAGUGGCUGUGGCUAGACUGCCUCUCUGGAUUCCUCGUCACUCAGCAGGGCAUCUCUGAGAGAAAUGCC [A59C A77U],0.6
17,UACGUAGGUGGUUUUCCCCUGAUAGGGCUAAGGGGGCCUGGAAGUUUGGGCUGGGCAGAGCUCAACACAGCGUGGCAAAGUGGCUGUGGCUAGACUGCCUCUCUGGAUUCCUCGUCACUCAGCAGGGCAUCUCUGAGAGAAAUGCC [U26G A50G],0.56
18,UACGUAGGUGGUUCUCCCCUGAUAGUGCUAAGGGGGCCUGGAAGGUUGGACUGGGCAGAGCUCAACACAGCGUGGCAAAGUGGCUGUGGCUAGACUGCCUCUCUGGAUUCCUCGUCACUCAGCAGGGCAUCUCUGAGAGAAAUGCC [U14C U45G],1.34
19,UACGUAGGUGGUUUUCCCCUGAUAGUGCUAAGGGGGCCUGGAAGUUUGGACUGGGCAGAGCUCAACACAGCGUGGCAAAGUGGCUGUGGCUAGACUGCCUCUCUGGAUUCCUCGUCACUCAGCAGGGCAGCUCUGAGAGAAACGCC [U130G U143C],1.5
20,UACGUAGGUGGUUUUCCCCUGAUAGUGCUAAGGGGGCCUGGAAGUUUGGACGGGGCAGAGCUCAACACAGCGUGGCAAAGUGGCUGUGGCUAGACUGCCUCUCUGGAUACCUCGUCACUCAGCAGGGCAUCUCUGAGAGAAAUGCC [U52G U109A],2.14

row,Variant,self-cleavage
1,UACGUAGGUGGUUUUCCCCUGAUAGUGCUAAGGGGGCCUGGAAGUUUGGACUGGGCAGAGCUCAACACAGCGUGGCAAAGUGGCUGUGGCUAGACUGCCUCCCUGGAUUCCUCGUCACUCAGCAGGGCUUCUCUGAGAGAAAUGCC [U102C A129U],1.22
2,UACGUAGGUGGUUUUCCCCUGAUAGUGCUAAGGGGGCCUGGAAGUUUGGACUGGGCAGAGCUCAACACAGCGUGGCAAAGUGGCUGUGGCUAGACUGCCUCUCUGGAUUCCUCGUCACUCAGCAGGGCAUCCUUGAGAGAAAUGCC [U132C C133U],1.4
3,UACGUAGGUGGUUUCCCCCUGAUAGUGCUAAGGGGGCCUGGAAGUUUGGACUGGGCAGAGCUCAACACAGCGUGGCAAAGUGGCUGUGGCUAGACUGCCUCUCUGGAUUCCUCGUCACUCAGCAGGGCAUCACUGAGAGAAAUGCC [U15C U132A],1.89
4,UACGUAGGUGGUUUUCCCCUGAUAGUGCUAAGGGGGCCUGGAAGUUUGGACUGGGCUGAGCUCAACACAGCGUGGCAAAGUGGCUGUGGCUAGACUGCCUCUCUGGAUUCCUCGUCACUCAGCAGGGCAUCUCUGAGAUAAAUGCC [A57U G139U],0.11
5,UACGUAGGUGGUUUUCCCCUGGUAGUGCUAAGGGGGCCUGGAAGUUUGAACUGGGCAGAGCUCAACACAGCGUGGCAAAGUGGCUGUGGCUAGACUGCCUCUCUGGAUUCCUCGUCACUCAGCAGGGCAUCUCUGAGAGAAAUGCC [A22G G49A],0.84
6,UACGUAGGUGGUUUUCCCCUGAUAGUGCUAAGGGGGCCUGGAAGUUUGGACUGGGCAGAGCUCAACACAGCGUGGCAAAGUGGCUGUGUCUAGACUGCCUCUCUGGAUUCCUCGUCACUCAGCGGGGCAUCUCUGAGAGAAAUGCC [G89U A124G],0.16
7,UACGUAGGUGGUUUUCCCCUGAUAGUGCUAAGGGGGCCUGGAAGUUUGGACUGGGCGGAGCUCAACACAGCGUGGCAAAGUGGCUGUGGCUAGACUGCCUCUCUGUAUUCCUCGUCACUCAGCAGGGCAUCUCUGAGAGAAAUGCC [A57G G106U],0.58
8,UACGUAGGUGGCUUUCCCCUGAUAGUGCUAAGGGGGCCUGGAAGUUUGGACUGGGCAGAGCUCAACACAGCGUGGCAUAGUGGCUGUGGCUAGACUGCCUCUCUGGAUUCCUCGUCACUCAGCAGGGCAUCUCUGAGAGAAAUGCC [U12C A78U],1.52
9,UACAUAGGUGGUUUUCCCCUGAUAGUGCUAAGGGGGCCUGGAAGUUUGGACUGGGCAGAGCUCAACACAGCGUGGCAAAGUGGCUGCGGCUAGACUGCCUCUCUGGAUUCCUCGUCACUCAGCAGGGCAUCUCUGAGAGAAAUGCC [G4A U87C],0.1
10,UACGUAGGUGGUUUUCCCCUGAUAGUGCUAAGGGGGCCUGGAAGUUUGGACUGGGCAGAGCUCAACACGGCGUGGCAAAGUGGCUGUGGCUAGACUGCCUCUCUGAAUUCCUCGUCACUCAGCAGGGCAUCUCUGAGAGAAAUGCC [A69G G106A],0.61
11,CACGUAGGUGGUUUUCCCCUGAUGGUGCUAAGGGGGCCUGGAAGUUUGGACUGGGCAGAGCUCAACACAGCGUGGCAAAGUGGCUGUGGCUAGACUGCCUCUCUGGAUUCCUCGUCACUCAGCAGGGCAUCUCUGAGAGAAAUGCC [U1C A24G],1.15
12,UACGUAGGUGGUUUUCCCCUAAUAGUGCUAAGGGGGCCUGGAAGUUUGGACUGGGCAGAGCUCAACACAGCGUGGCAAAGUGGCUGUGGCUAGGCUGCCUCUCUGGAUUCCUCGUCACUCAGCAGGGCAUCUCUGAGAGAAAUGCC [G21A A94G],0.1
13,UACGUAGUUGGUUUUCCCCUGAUAGUGCUAAGGGGGCCUGGUAGUUUGGACUGGGCAGAGCUCAACACAGCGUGGCAAAGUGGCUGUGGCUAGACUGCCUCUCUGGAUUCCUCGUCACUCAGCAGGGCAUCUCUGAGAGAAAUGCC [G8U A42U],1.17
14,UACGUAGGUGGUUUUCCCCUGAUAGUGCUAAGGGGGCCUGGAAGUUUGGACUGGGCAGAGCUCAACACAGCGUGGCAAAGUGGCUGUGGCUGGACUGCCUCUCUGGAUUCCUCGUCACCCAGCAGGGCAUCUCUGAGAGAAAUGCC [A92G U119C],0.1
15,UACGUAGGUGGUUUUCCCCUGAUAGUGCUAAGGGGGCCUGGAAGUUCGGACUGGGCAGAGCUCAACACAGCGUGGCAAAGUGGCUGUGGCUAGACUGCCUCUCUGGAUUCCUCGUCACUCAGCAGGGCAUCUCUGAGAGAACUGCC [U47C A142C],1.3
16,UACGUAGGUGGUUUUCCCCUGAUAGUGCUAAGGGGGCCUGGAAGUUUGGACUGGGCAGACCUCAACACAGCGUGGCAAAGUGGCUGUGGCUAGACUGCCUCUCUGGAUUCCUCGUCACUCAGCAGGGCAUCUCAGAGAGAAAUGCC [G60C U134A],0.07
17,UACGUAGGUGGUUUUCCCCUGAUAGUGCUAAGGGGGCCUGGAAGUUUGGACUGGGCAGAGCUCAACACAGCGUGGCAAAGUGGCUGUGGCUAGACUGCCUCUCUGGAUUCCUCGUCACACAGCAGGGCAUCUCUGAGAGAAAUGCC [U119A],1.44
18,UACGUAGGUGGUUUUCCCCUGAUAGUGCUAAGGGGGCCUGGAAGUUUGGACUGGGCAGAGCUCAACACAGCGUGGCAAAGUGGCCGUGGCUAGACUGCCUCUCUGGAUUCCUCGUCACUCAGCAGGGCAUCGCUGAGAGAAAUGCC [U85C U132G],0.28
19,UACGUAGGUGGUUUUCCCCUGAUAGUGCUAAGGGGGCCUGGAAGUUUGGACUGGGCAGAGCUCAACACAGCGUGGCAAAGUGGCUAUGGCUAGACUGCCUCCCUGGAUUCCUCGUCACUCAGCAGGGCAUCUCUGAGAGAAAUGCC [G86A U102C],0.18
